*1 amine or outer side, *2 acyl side, *3 side chain or, on linkers, in order; H or OH if unused. Where no end group is shown, it is not given here. Side-chain parts run from the residue outwards. [ ]: non-standard residue; d: D form. The star is where a group is joined. C18 diacid = O=C(O)CCCCCCCCCCCCCCCCC(=O)*; C16 diacid = O=C(O)CCCCCCCCCCCCCCC(=O)*; γGlu = O=C(O)[C@H](CCC(=O)[*:2])N[*:1]; NMeI = CC[C@H](C)[C@H](NC)C(=O)O; αMeL = CC(C)C[C@](C)(N)C(=O)O; Pentanoyl = CCCCC(=O)*; AEEA = NCCOCCOCC(=O)O; Aib = CC(C)(N)C(=O)O
T1: CRF1R receptor (UniProt P34998 24-415, limits assumed)
T1 sequence (looked up): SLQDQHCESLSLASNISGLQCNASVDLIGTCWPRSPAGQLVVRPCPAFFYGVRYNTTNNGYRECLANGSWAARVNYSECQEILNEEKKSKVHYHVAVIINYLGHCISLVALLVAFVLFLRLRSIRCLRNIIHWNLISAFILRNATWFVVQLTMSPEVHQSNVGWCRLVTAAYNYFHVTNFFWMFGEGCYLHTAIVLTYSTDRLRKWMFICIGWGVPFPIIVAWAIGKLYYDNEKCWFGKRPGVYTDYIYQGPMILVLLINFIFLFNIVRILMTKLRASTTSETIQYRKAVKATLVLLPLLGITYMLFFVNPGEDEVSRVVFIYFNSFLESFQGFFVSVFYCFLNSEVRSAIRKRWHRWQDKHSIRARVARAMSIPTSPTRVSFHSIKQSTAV


Experiments:
CRF1R receptor = target: T1, CRF1R receptor; test: cell-based or functional assay
[1] = target: human corticotropin-releasing factor 2a (CRF2a receptor) (human), Q13324; test: cell-based or functional assay
Chain of human corticotropin-releasing factor 2a (CRF2a receptor) (human), Q13324 (Q13324 20-411): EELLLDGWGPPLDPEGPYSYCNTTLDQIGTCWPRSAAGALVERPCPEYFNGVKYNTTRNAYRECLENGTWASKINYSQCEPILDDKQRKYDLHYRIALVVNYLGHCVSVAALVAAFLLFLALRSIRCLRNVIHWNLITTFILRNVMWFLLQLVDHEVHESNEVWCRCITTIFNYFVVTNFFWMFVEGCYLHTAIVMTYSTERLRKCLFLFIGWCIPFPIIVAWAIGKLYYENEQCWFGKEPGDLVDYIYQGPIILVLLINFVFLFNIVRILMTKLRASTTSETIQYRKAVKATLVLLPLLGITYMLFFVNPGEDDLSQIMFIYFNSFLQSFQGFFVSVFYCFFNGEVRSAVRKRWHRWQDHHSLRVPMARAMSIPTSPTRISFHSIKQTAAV

Emax (% I) (CRF1R receptor) [%]	EC50 [nM] (cAMP) [1]	Binder
5	1.62	[NMeI]VLSLD[dV]PIK[αMeL]K([AEEA-AEEA-γGlu-C18 diacid])KILLEQEKQKKQREQAETN[Aib]QILAQV-NH2 (N-terminus assumed; SMILES CC[C@H](C)[C@H](NC)C(=O)N[C@H](C(=O)N[C@@H](CC(C)C)C(=O)N[C@@H](CO)C(=O)N[C@@H](CC(C)C)C(=O)N[C@@H](CC(=O)O)C(=O)N[C@@H](C(=O)N1CCC[C@H]1C(=O)N[C@H](C(=O)N[C@@H](CCCCN)C(=O)N[C@@](C)(CC(C)C)C(=O)N[C@@H](CCCCNC(=O)COCCOCCNC(=O)COCCOCCNC(=O)CC[C@H](NC(=O)CCCCCCCCCCCCCCCCC(=O)O)C(=O)O)C(=O)N[C@@H](CCCCN)C(=O)N[C@H](C(=O)N[C@@H](CC(C)C)C(=O)N[C@@H](CC(C)C)C(=O)N[C@@H](CCC(=O)O)C(=O)N[C@@H](CCC(N)=O)C(=O)N[C@@H](CCC(=O)O)C(=O)N[C@@H](CCCCN)C(=O)N[C@@H](CCC(N)=O)C(=O)N[C@@H](CCCCN)C(=O)N[C@@H](CCCCN)C(=O)N[C@@H](CCC(N)=O)C(=O)N[C@@H](CCCNC(=N)N)C(=O)N[C@@H](CCC(=O)O)C(=O)N[C@@H](CCC(N)=O)C(=O)N[C@@H](C)C(=O)N[C@@H](CCC(=O)O)C(=O)N[C@H](C(=O)N[C@@H](CC(N)=O)C(=O)NC(C)(C)C(=O)N[C@@H](CCC(N)=O)C(=O)N[C@H](C(=O)N[C@@H](CC(C)C)C(=O)N[C@@H](C)C(=O)N[C@@H](CCC(N)=O)C(=O)N[C@H](C(N)=O)C(C)C)[C@@H](C)CC)[C@@H](C)O)[C@@H](C)CC)[C@@H](C)CC)C(C)C)C(C)C) [SEQ ID NO 119]
8	0.34	[NMeI]VLSLD[dV]PIK[αMeL]K([γGlu-C16 diacid])KILLEQEKQKKQREQAETNVQILAQV-NH2 (N-terminus assumed; SMILES CC[C@H](C)[C@H](NC)C(=O)N[C@H](C(=O)N[C@@H](CC(C)C)C(=O)N[C@@H](CO)C(=O)N[C@@H](CC(C)C)C(=O)N[C@@H](CC(=O)O)C(=O)N[C@@H](C(=O)N1CCC[C@H]1C(=O)N[C@H](C(=O)N[C@@H](CCCCN)C(=O)N[C@@](C)(CC(C)C)C(=O)N[C@@H](CCCCNC(=O)CC[C@H](NC(=O)CCCCCCCCCCCCCCC(=O)O)C(=O)O)C(=O)N[C@@H](CCCCN)C(=O)N[C@H](C(=O)N[C@@H](CC(C)C)C(=O)N[C@@H](CC(C)C)C(=O)N[C@@H](CCC(=O)O)C(=O)N[C@@H](CCC(N)=O)C(=O)N[C@@H](CCC(=O)O)C(=O)N[C@@H](CCCCN)C(=O)N[C@@H](CCC(N)=O)C(=O)N[C@@H](CCCCN)C(=O)N[C@@H](CCCCN)C(=O)N[C@@H](CCC(N)=O)C(=O)N[C@@H](CCCNC(=N)N)C(=O)N[C@@H](CCC(=O)O)C(=O)N[C@@H](CCC(N)=O)C(=O)N[C@@H](C)C(=O)N[C@@H](CCC(=O)O)C(=O)N[C@H](C(=O)N[C@@H](CC(N)=O)C(=O)N[C@H](C(=O)N[C@@H](CCC(N)=O)C(=O)N[C@H](C(=O)N[C@@H](CC(C)C)C(=O)N[C@@H](C)C(=O)N[C@@H](CCC(N)=O)C(=O)N[C@H](C(N)=O)C(C)C)[C@@H](C)CC)C(C)C)[C@@H](C)O)[C@@H](C)CC)[C@@H](C)CC)C(C)C)C(C)C) [SEQ ID NO 67]
9	0.3	Ac-IVLSLD[dV]PIK[αMeL]K([AEEA-AEEA-γGlu-C18 diacid])KILLEQEKQKKQREQAETN[Aib]QILAQV-NH2 (SMILES CC[C@H](C)[C@H](NC(C)=O)C(=O)N[C@H](C(=O)N[C@@H](CC(C)C)C(=O)N[C@@H](CO)C(=O)N[C@@H](CC(C)C)C(=O)N[C@@H](CC(=O)O)C(=O)N[C@@H](C(=O)N1CCC[C@H]1C(=O)N[C@H](C(=O)N[C@@H](CCCCN)C(=O)N[C@@](C)(CC(C)C)C(=O)N[C@@H](CCCCNC(=O)COCCOCCNC(=O)COCCOCCNC(=O)CC[C@H](NC(=O)CCCCCCCCCCCCCCCCC(=O)O)C(=O)O)C(=O)N[C@@H](CCCCN)C(=O)N[C@H](C(=O)N[C@@H](CC(C)C)C(=O)N[C@@H](CC(C)C)C(=O)N[C@@H](CCC(=O)O)C(=O)N[C@@H](CCC(N)=O)C(=O)N[C@@H](CCC(=O)O)C(=O)N[C@@H](CCCCN)C(=O)N[C@@H](CCC(N)=O)C(=O)N[C@@H](CCCCN)C(=O)N[C@@H](CCCCN)C(=O)N[C@@H](CCC(N)=O)C(=O)N[C@@H](CCCNC(=N)N)C(=O)N[C@@H](CCC(=O)O)C(=O)N[C@@H](CCC(N)=O)C(=O)N[C@@H](C)C(=O)N[C@@H](CCC(=O)O)C(=O)N[C@H](C(=O)N[C@@H](CC(N)=O)C(=O)NC(C)(C)C(=O)N[C@@H](CCC(N)=O)C(=O)N[C@H](C(=O)N[C@@H](CC(C)C)C(=O)N[C@@H](C)C(=O)N[C@@H](CCC(N)=O)C(=O)N[C@H](C(N)=O)C(C)C)[C@@H](C)CC)[C@@H](C)O)[C@@H](C)CC)[C@@H](C)CC)C(C)C)C(C)C) [SEQ ID NO 110]
18	0.15	Ac-IVLSLD[dV]PIKLK([γGlu-C18 diacid])KILLEQEKQKKQREQAETN[Aib]QILAQV-NH2 (SMILES CC[C@H](C)[C@H](NC(C)=O)C(=O)N[C@H](C(=O)N[C@@H](CC(C)C)C(=O)N[C@@H](CO)C(=O)N[C@@H](CC(C)C)C(=O)N[C@@H](CC(=O)O)C(=O)N[C@@H](C(=O)N1CCC[C@H]1C(=O)N[C@H](C(=O)N[C@@H](CCCCN)C(=O)N[C@@H](CC(C)C)C(=O)N[C@@H](CCCCNC(=O)CC[C@H](NC(=O)CCCCCCCCCCCCCCCCC(=O)O)C(=O)O)C(=O)N[C@@H](CCCCN)C(=O)N[C@H](C(=O)N[C@@H](CC(C)C)C(=O)N[C@@H](CC(C)C)C(=O)N[C@@H](CCC(=O)O)C(=O)N[C@@H](CCC(N)=O)C(=O)N[C@@H](CCC(=O)O)C(=O)N[C@@H](CCCCN)C(=O)N[C@@H](CCC(N)=O)C(=O)N[C@@H](CCCCN)C(=O)N[C@@H](CCCCN)C(=O)N[C@@H](CCC(N)=O)C(=O)N[C@@H](CCCNC(=N)N)C(=O)N[C@@H](CCC(=O)O)C(=O)N[C@@H](CCC(N)=O)C(=O)N[C@@H](C)C(=O)N[C@@H](CCC(=O)O)C(=O)N[C@H](C(=O)N[C@@H](CC(N)=O)C(=O)NC(C)(C)C(=O)N[C@@H](CCC(N)=O)C(=O)N[C@H](C(=O)N[C@@H](CC(C)C)C(=O)N[C@@H](C)C(=O)N[C@@H](CCC(N)=O)C(=O)N[C@H](C(N)=O)C(C)C)[C@@H](C)CC)[C@@H](C)O)[C@@H](C)CC)[C@@H](C)CC)C(C)C)C(C)C) [SEQ ID NO 125]
10	0.1	[NMeI]VLSLD[dV]PIK[αMeL]K([γGlu-C16 diacid])KILLEQEKQKKQREQAETN[Aib]QILAQV-NH2 (N-terminus assumed; SMILES CC[C@H](C)[C@H](NC)C(=O)N[C@H](C(=O)N[C@@H](CC(C)C)C(=O)N[C@@H](CO)C(=O)N[C@@H](CC(C)C)C(=O)N[C@@H](CC(=O)O)C(=O)N[C@@H](C(=O)N1CCC[C@H]1C(=O)N[C@H](C(=O)N[C@@H](CCCCN)C(=O)N[C@@](C)(CC(C)C)C(=O)N[C@@H](CCCCNC(=O)CC[C@H](NC(=O)CCCCCCCCCCCCCCC(=O)O)C(=O)O)C(=O)N[C@@H](CCCCN)C(=O)N[C@H](C(=O)N[C@@H](CC(C)C)C(=O)N[C@@H](CC(C)C)C(=O)N[C@@H](CCC(=O)O)C(=O)N[C@@H](CCC(N)=O)C(=O)N[C@@H](CCC(=O)O)C(=O)N[C@@H](CCCCN)C(=O)N[C@@H](CCC(N)=O)C(=O)N[C@@H](CCCCN)C(=O)N[C@@H](CCCCN)C(=O)N[C@@H](CCC(N)=O)C(=O)N[C@@H](CCCNC(=N)N)C(=O)N[C@@H](CCC(=O)O)C(=O)N[C@@H](CCC(N)=O)C(=O)N[C@@H](C)C(=O)N[C@@H](CCC(=O)O)C(=O)N[C@H](C(=O)N[C@@H](CC(N)=O)C(=O)NC(C)(C)C(=O)N[C@@H](CCC(N)=O)C(=O)N[C@H](C(=O)N[C@@H](CC(C)C)C(=O)N[C@@H](C)C(=O)N[C@@H](CCC(N)=O)C(=O)N[C@H](C(N)=O)C(C)C)[C@@H](C)CC)[C@@H](C)O)[C@@H](C)CC)[C@@H](C)CC)C(C)C)C(C)C) [SEQ ID NO 65]
14	0.38	Pentanoyl-VLSLD[dV]PIK[αMeL]K([AEEA-AEEA-γGlu-C18 diacid])KILLEQEKQKKQREQAETNVQILAQV-NH2 [SEQ ID NO 124]
14	0.7	Pentanoyl-VLSLD[dV]PIK[αMeL]K([AEEA-AEEA-γGlu-C18 diacid])KILLEQEKQKKQREQAETN[Aib]QILAQV-NH2 [SEQ ID NO 123]
